Source: publication PMC11189300 (2024)

Columns and labels:
[1] = target: Mis12C^M3 (human, UniProt Q9H081 1-205; Q6P1K2 1-205; Q96IY1 1-281; Q9H410 1-356); assay: ITC
[2] = target: Mis12C^M4 (human, UniProt Q9H081 1-205; Q6P1K2 1-205; Q96IY1 1-281; Q9H410 1-356); assay: ITC
[3] = target: Mis12C^M5 (NSL1 I216A) (human, UniProt Q9H081 1-205; Q6P1K2 1-205; Q96IY1 1-281; Q9H410 1-356, I216A); assay: ITC
[4] = target: T1, ZWINT^M2 (human, UniProt O95229 1-277); assay: BLI; Kd2 (second site)
[5] = target: T2, ZWINT^M1 (human, UniProt O95229 1-277); assay: BLI; Kd2 (second site)
[6] = target: T1, ZWINT^M2; assay: BLI; Kd1
[7] = target: T2, ZWINT^M1; assay: BLI; Kd1

Mis12C^M4, sequence (Q9H081 whole entry, chain 1 of 4): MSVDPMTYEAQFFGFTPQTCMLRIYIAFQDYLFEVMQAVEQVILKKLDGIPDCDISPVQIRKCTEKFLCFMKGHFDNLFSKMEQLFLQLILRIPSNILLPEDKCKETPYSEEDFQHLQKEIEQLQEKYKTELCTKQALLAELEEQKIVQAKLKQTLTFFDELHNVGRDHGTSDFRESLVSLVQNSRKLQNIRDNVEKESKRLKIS
Mis12C^M4, sequence (Q6P1K2 whole entry, chain 2 of 4): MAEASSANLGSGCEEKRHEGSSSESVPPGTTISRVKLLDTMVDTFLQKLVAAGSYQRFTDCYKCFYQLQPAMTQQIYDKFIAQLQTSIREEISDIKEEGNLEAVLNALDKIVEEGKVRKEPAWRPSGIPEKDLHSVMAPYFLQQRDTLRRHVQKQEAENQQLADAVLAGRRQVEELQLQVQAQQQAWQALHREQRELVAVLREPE
Mis12C^M4, sequence (Q96IY1 whole entry, chain 3 of 4): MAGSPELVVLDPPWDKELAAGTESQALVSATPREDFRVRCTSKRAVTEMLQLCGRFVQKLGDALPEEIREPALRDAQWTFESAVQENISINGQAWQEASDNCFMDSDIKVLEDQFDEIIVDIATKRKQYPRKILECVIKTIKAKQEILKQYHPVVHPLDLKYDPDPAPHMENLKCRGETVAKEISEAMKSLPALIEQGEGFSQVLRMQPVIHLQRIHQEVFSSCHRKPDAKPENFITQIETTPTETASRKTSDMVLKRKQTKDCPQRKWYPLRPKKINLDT
Mis12C^M4, sequence (Q9H410 whole entry, chain 4 of 4): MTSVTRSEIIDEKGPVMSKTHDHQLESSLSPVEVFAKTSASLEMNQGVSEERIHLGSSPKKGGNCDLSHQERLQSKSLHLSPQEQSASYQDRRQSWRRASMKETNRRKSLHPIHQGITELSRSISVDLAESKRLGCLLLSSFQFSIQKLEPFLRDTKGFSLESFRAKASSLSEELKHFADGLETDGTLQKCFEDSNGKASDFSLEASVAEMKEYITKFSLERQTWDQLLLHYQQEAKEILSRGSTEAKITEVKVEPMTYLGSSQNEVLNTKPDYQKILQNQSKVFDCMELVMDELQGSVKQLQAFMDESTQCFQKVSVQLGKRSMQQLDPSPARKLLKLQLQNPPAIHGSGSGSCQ
Mis12C^M3, sequence (Q9H081 whole entry, chain 1 of 4): as the sequence (Q9H081 whole entry, chain 1 of 4) above
Mis12C^M3, sequence (Q6P1K2 whole entry, chain 2 of 4): as the sequence (Q6P1K2 whole entry, chain 2 of 4) above
Mis12C^M3, sequence (Q96IY1 whole entry, chain 3 of 4): as the sequence (Q96IY1 whole entry, chain 3 of 4) above
Mis12C^M3, sequence (Q9H410 whole entry, chain 4 of 4): as the sequence (Q9H410 whole entry, chain 4 of 4) above
Mis12C^M5 (NSL1 I216A), sequence (Q9H081 whole entry, chain 1 of 4): as the sequence (Q9H081 whole entry, chain 1 of 4) above
Mis12C^M5 (NSL1 I216A), sequence (Q6P1K2 whole entry, chain 2 of 4): as the sequence (Q6P1K2 whole entry, chain 2 of 4) above
Mis12C^M5 (NSL1 I216A), sequence (Q96IY1 whole entry I216A, chain 3 of 4): as the sequence (Q96IY1 whole entry, chain 3 of 4) above, with I216A counted along it
Mis12C^M5 (NSL1 I216A), sequence (Q9H410 whole entry, chain 4 of 4): as the sequence (Q9H410 whole entry, chain 4 of 4) above

B1: full-length SPC24/SPC25 (complex)
chain 1: MAAFRDIEEVSQGLLSLLGANRAEAQQRRLLGRHEQVVERLLETQDGAEKQLREILTMEKEVAQSLLNAKEQVHQGGVELQQLEAGLQEAGEEDTRLKASLLQLTRELEELKEIEADLERQEKEVDEDTTVTIPSAVYVAQLYHQVSKIEWDYECEPGMVKGIHHGPSVAQPIHLDSTQLSRKFISDYLWSLVDTEW
chain 2: MVEDELALFDKSINEFWNKFKSTDTSCQMAGLRDTYKDSIKAFAEKLSVKLKEEERMVEMFLEYQNQISRQNKLIQEKKDNLLKLIAEVKGKKQELEVLTANIQDLKEEYSRKKETISTANKANAERLKRLQKSADLYKDRLGLEIRKIYGEKLQFIFTNIDPKNPESPFMFSLHLNEARDYEVSDSAPHLEGLAEFQENVRKTNNFSAFLANVRKAFTATVYN
B1 gave a Kd [1] of 1170 nM, a Kd [2] of 451 nM and a Kd [3] of 774 nM.

B2: KNL1 (construct of the BLI titrations with ZWINT) (domain or fragment)
chain: GKLVQSAQNEREKLQIKIDEMDKILKKIDNCLTEMETETKNLEDEEKNNPVEEWDSEMRAAEKELEQLKTEEEELQRNLLELEVQKEQTLAQIDFMQKQRNRTEELLDQLSLSEWDVVEWSDDQAVFTFVYDTIQLTITFEESVVGFPFLDKRYRKIVDVNFQSLLDEDQAPPSSLLVHKLIFQYVEEKESWKKTCTTQHQLPKMLEEFSLVVHHCRLLGEEIEYLKRWGPNYNLMNIDINNNELRLLFSSSAAFAKFEITLFLSAYYPSVPLPSTIQNHVGNTSQDDIATILSKVPLENNYLKNVVKQIYQDLFQDCHFYH
Work on B2 yielded a Kd [4] of 250 nM, a Kd [5] of 25.1 nM and a Kd [6] of 1170 nM. It also gave a Kd [7] of 235 nM.
